Laboratory results taken from the supplement of paper PMC9112550, “Optimization of the antimicrobial peptide Bac7 by deep mutational scanning” (BMC Biology, 2022).

test system: Escherichia coli TOP10; experiment: shrunken log2 fold change of peptide-encoding DNA abundance (4.5 h post-induction vs induction); higher = less antimicrobial activity (less host growth inhibition); conditions: time post-induction: 4.5 h; library: site-saturation at positions 5, 18, 19, 20
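Further: peptides expressed intracellularly from a pBAD plasmid library in pooled LB shake-flask culture, induced with 0.3% L-arabinose, DNA abundance read by NGS, three biological replicates, DESeq2 with apeglm shrinkage.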

| Sequence | shrunken log2 fold change |
| --- | --- |
| RRIRSRPPRLPRPRPRPNQIPRP | 0.0721 |
| RRIRTRPPRLPRPRPRPIPPPRP | 0.384 |
| RRIRARPPRLPRPRPRPMLWPRP | 0.183 |
| RRIRRRPPRLPRPRPRPWGQPRP | 0.0104 |
| RRIRGRPPRLPRPRPRPYMWPRP | -0.361 |
| RRIRKRPPRLPRPRPRPCQQPRP | -0.0287 |
| RRIRMRPPRLPRPRPRPITNPRP | -0.192 |
| RRIRARPPRLPRPRPRPMISPRP | 0.501 |
| RRIRLRPPRLPRPRPRPCMGPRP | -0.085 |
| RRIRERPPRLPRPRPRPELWPRP | 0.273 |
| RRIRHRPPRLPRPRPRPLCIPRP | -0.165 |
| RRIRSRPPRLPRPRPRPNSTPRP | -0.573 |
| RRIRMRPPRLPRPRPRPFGAPRP | 0.329 |
| RRIRERPPRLPRPRPRPGSFPRP | 0.0492 |
| RRIRARPPRLPRPRPRPAVGPRP | 0.512 |
| RRIRMRPPRLPRPRPRPQESPRP | 0.55 |
| RRIRKRPPRLPRPRPRPETTPRP | 1.53 |
| RRIRIRPPRLPRPRPRPGTRPRP | 0.0641 |
| RRIRQRPPRLPRPRPRPDGFPRP | -0.0107 |
| RRIRCRPPRLPRPRPRPPHNPRP | 0.919 |
| RRIRFRPPRLPRPRPRPMARPRP | -0.0235 |
| RRIRTRPPRLPRPRPRPCVYPRP | -0.243 |
| RRIRCRPPRLPRPRPRPGYIPRP | -0.258 |
| RRIRSRPPRLPRPRPRPSHMPRP | -0.993 |
| RRIRSRPPRLPRPRPRPQGLPRP | 0.0641 |

| Sequence | shrunken log2 fold change |
| --- | --- |
| RRIRKRPPRLPRPRPRPNPLPRP | 0.0246 |
| RRIRARPPRLPRPRPRPPSTPRP | 0.563 |
| RRIRRRPPRLPRPRPRPMKIPRP | 0.186 |
| RRIRGRPPRLPRPRPRPQSTPRP | 0.649 |
| RRIRVRPPRLPRPRPRPIKSPRP | -0.184 |
| RRIRSRPPRLPRPRPRPGCSPRP | -0.115 |
| RRIRCRPPRLPRPRPRPACPPRP | -0.136 |
| RRIRLRPPRLPRPRPRPFLMPRP | -0.551 |
| RRIRNRPPRLPRPRPRPACQPRP | -0.0318 |
| RRIRGRPPRLPRPRPRPAQFPRP | 0.199 |
| RRIRGRPPRLPRPRPRPCQNPRP | 0.0697 |
| RRIRGRPPRLPRPRPRPVYSPRP | -0.36 |
| RRIRIRPPRLPRPRPRPNWVPRP | -0.231 |
| RRIRCRPPRLPRPRPRPGRWPRP | 0.434 |
| RRIRQRPPRLPRPRPRPHKHPRP | -0.502 |
| RRIRQRPPRLPRPRPRPTAHPRP | -0.0756 |
| RRIRRRPPRLPRPRPRPYMEPRP | -0.0924 |
| RRIRARPPRLPRPRPRPRLFPRP | 0.465 |
| RRIRTRPPRLPRPRPRPGRMPRP | 0.232 |
| RRIRARPPRLPRPRPRPHIGPRP | -0.175 |
| RRIRMRPPRLPRPRPRPSQSPRP | 0.53 |
| RRIRARPPRLPRPRPRPPSQPRP | 0.669 |
| RRIRPRPPRLPRPRPRPELYPRP | 0.0891 |
| RRIRFRPPRLPRPRPRPEMNPRP | -0.253 |
| RRIRHRPPRLPRPRPRPYPIPRP | -0.887 |

| Sequence | shrunken log2 fold change |
| --- | --- |
| RRIRNRPPRLPRPRPRPAWQPRP | -0.0152 |
| RRIRERPPRLPRPRPRPEPTPRP | 0.327 |
| RRIRERPPRLPRPRPRPNYGPRP | -0.0315 |
| RRIRWRPPRLPRPRPRPDQLPRP | 0.066 |
| RRIRNRPPRLPRPRPRPWQKPRP | -0.18 |
| RRIRGRPPRLPRPRPRPTGRPRP | 0.907 |
| RRIRERPPRLPRPRPRPHTVPRP | -0.346 |
| RRIRTRPPRLPRPRPRPAWQPRP | -0.0092 |
| RRIRTRPPRLPRPRPRPLCYPRP | -0.452 |
| RRIRKRPPRLPRPRPRPHIVPRP | -0.0154 |
| RRIRYRPPRLPRPRPRPTQPPRP | 0.409 |
| RRIRFRPPRLPRPRPRPPLEPRP | 0.288 |
| RRIRCRPPRLPRPRPRPIDEPRP | -0.0366 |
| RRIRVRPPRLPRPRPRPLFNPRP | -0.465 |
| RRIRARPPRLPRPRPRPNCDPRP | 0.476 |
| RRIRLRPPRLPRPRPRPTVQPRP | -0.191 |
| RRIRNRPPRLPRPRPRPHWMPRP | -0.0835 |
| RRIRERPPRLPRPRPRPGVMPRP | 0.0523 |
| RRIRERPPRLPRPRPRPPAEPRP | 0.758 |
| RRIRCRPPRLPRPRPRPELKPRP | 0.0478 |
| RRIRWRPPRLPRPRPRPVPKPRP | 0.524 |
| RRIRYRPPRLPRPRPRPGTIPRP | 0.137 |
| RRIRERPPRLPRPRPRPWRMPRP | -0.13 |
| RRIRWRPPRLPRPRPRPYPEPRP | -0.224 |
| RRIRCRPPRLPRPRPRPAMDPRP | -0.207 |
